Measurements as given in patent US11912794B2, “Modulation of structured polypeptide specificity” (BicycleRD Limited, priority 2011, dated 2024).
Numbered stars: 1 amine (or outer) side, 2 acyl side, 3 side chain; on linkers, the order of the positions; unused ones are H or OH. Bridge positions count the residues as written; N and C are the ends. Ends that are not written are not given here. Peptide text beside a SMILES is read from it. TBMB = c1c(C[*:1])cc(C[*:3])cc1C[*:2]

Experiments:
[1] = target: biotinylated human plasma Kallikrein (Homo sapiens, UniProt P03952); experiment: Phage binding assay of individual clones, randomisation of peptide domains; conditions: for Rank (sequences ranked according to Kallikrein binding): WPAR domain fixed, positions 1, 6, 7, 8, 9 & 10 randomised, top 50
Chain of biotinylated human plasma Kallikrein (P03952 20-638): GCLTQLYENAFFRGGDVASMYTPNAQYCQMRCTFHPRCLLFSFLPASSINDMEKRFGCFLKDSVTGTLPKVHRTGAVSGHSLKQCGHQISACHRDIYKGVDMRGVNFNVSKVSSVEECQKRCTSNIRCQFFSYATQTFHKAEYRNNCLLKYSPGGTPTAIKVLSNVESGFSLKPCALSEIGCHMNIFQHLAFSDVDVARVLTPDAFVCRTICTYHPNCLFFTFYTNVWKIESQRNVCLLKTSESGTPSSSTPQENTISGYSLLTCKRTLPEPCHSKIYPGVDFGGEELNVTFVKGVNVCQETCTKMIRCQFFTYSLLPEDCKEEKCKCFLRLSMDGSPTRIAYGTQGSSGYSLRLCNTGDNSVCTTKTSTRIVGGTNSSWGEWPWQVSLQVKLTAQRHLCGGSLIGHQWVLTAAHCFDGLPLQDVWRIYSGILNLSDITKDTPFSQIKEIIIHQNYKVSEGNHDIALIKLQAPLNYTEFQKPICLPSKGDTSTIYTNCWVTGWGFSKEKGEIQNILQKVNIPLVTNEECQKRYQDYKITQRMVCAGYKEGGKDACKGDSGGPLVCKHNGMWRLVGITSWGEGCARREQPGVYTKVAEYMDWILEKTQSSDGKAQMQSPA
Source text: Library construction: Small phage libraries were generated according to the methods of Heinis et al as described in ‘Cloning of phage libraries’ above. The sficx3ba primer was modified such that the bicycle-encoding portion was based on a parent 5×5 bicycle (5×5: two 5-residue loops) DNA sequence with only 4-6 codons randomized to NNS. The randomized codons were those encoding the peptide domain/motif of interest.
Assay of binding of individual clones: Library transformant colonies, or selection output colonies, were picked and grown as individual cultures in 2TY broth containing selective antibiotic. The picked colonies were DNA-sequenced using a QIAgen PyroMark Q96 DNA sequencer to reveal the amino-acid substitution present in each clone, and were assayed for human plasma Kallikrein binding as follows. The phage-containing supernatant was harvested from the culture and phage were cyclised with tris bromomethyl benzene(TBMB) based on the methods of Heinis et al (Nature Chemical Biology vol. 5 pp 502-507 (2009)). The purified phage from this process were assayed for binding to biotinylated human plasma Kallikrein using a homogeneous plate-based binding assay; assay read-out measured on a BMG Labtech Pherastar FS plate reader. The quantitative binding data from duplicate assay samples was averaged (mean) and expressed as signal:background. Assay data shown is representative of at least 2 independent experiments. The assay data was correlated with the peptide sequences.
(§1) The WPAR (SEQ ID NO: 18) motif identified from Example 1 was analysed in the context of the 06-34-03 peptide, in order to identify alternatives or improvements to the WPAR (SEQ ID NO: 18) motif. A library was constructed where positions 1, 6, 7, 8, 9 &10 of 06-34-03 were fixed and positions 2, 3, 4 & 5 were randomised (see ‘Randomisation of peptide domains—Library construction’ in Methods above). Selections against human plasma Kallikrein were performed at a variety of stringencies (see Phage selections' in Methods above). All output sequences were identified and analysed for target binding (see ‘Randomisation of peptide domains—Assay of binding of individual clones’ in Methods above). Table 17 lists each unique sequence, its relative abundance in the selection output (frequency), and a rank number according to target binding strength.
Selections against human plasma Kallikrein were performed with this library in order to study the non-WPAR (SEQ ID NO: 18) determinants of Kallikrein binding, and to isolate the optimal WPAR (SEQ ID NO: 18)-containing peptide sequence. Over 150 selection output sequences were isolated and screened for binding to human plasma Kallikrein (as described in Methods above). The sequences were ranked in order of Kallikrein binding and the top 50 sequences were aligned in Table 19. […]

[2] = target: T1, Biotinylated hPK (Homo sapiens, UniProt P03952); experiment: Phage selections, abundance of sequences in selection outputs; type: binding
T1 construct: IHPKA, from human plasma; purchased Innovative Research, Novi, MI, USA IHPKA; host or cells: human plasma
T1 sequence (P03952 20-638): as above
Method: Glycerol stocks of phage libraries were diluted to OD600=0.1 in 500 ml 2YT/chloramphenicol (30 μg/ml) cultures and phage were produced at 30° C. over night (15-16 hrs). Phage were purified and chemically modified as described in Heinis, et al., Nat Chem Biol 2009, 5 (7), 502-7 Biotinylated hPK (3 μg) (IHPKA, from human plasma, Innovative Research, Novi, MI, USA) was incubated with 50 μl pre-washed magnetic streptavidin beads (Dynal, M-280 from Invitrogen, Paisley, UK) for 10 minutes at RT. […] Blocked beads were then mixed with the blocked chemically modified phage and incubated for 30 minutes on a rotating wheel at RT. Beads were washed 8 times with washing buffer containing 0.1% Tween 20 and twice with washing buffer before incubation with 100 μl of 50 mM glycine, pH 2.2 for 5 minutes. Eluted phage were transferred to 50 μl of 1 M Tris-Cl, pH 8 for neutralization, incubated with 30 ml TG1 cells at OD600=0.4 for 90 minutes at 37° C. and the cells were plated on large 2YT/chloramphenicol plates. One or two additional rounds of panning were performed using the same procedures. In the second round of selection, neutravidin-coated magnetic beads were used to prevent the enrichment of streptavidin-specific peptides. The neutravidin beads were prepared by reacting 0.8 mg neutravidin (Pierce, Rockford, IL, USA) with 0.5 ml tosyl-activated magnetic beads (Dynal, M-280 from Invitrogen, Paisley, UK) according to the supplier's instructions.
as §1

| Compound | Rank (sequences ranked according to Kallikrein binding) [1] | other results |
| --- | --- | --- |
| CC(C)C[C@@H]1NC(=O)[C@H](CC(=O)O)NC(=O)[C@H](CCC(N)=O)NC(=O)[C@H](Cc2c[nH]cn2)NC(=O)[C@H]([C@@H](C)O)NC(=O)[C@@H]2CSCc3cc(cc(c3)CSC[C@@H](C(=O)N[C@@H](C)C(N)=O)NC1=O)CSC[C@H](NC(=O)[C@H](C)N)C(=O)N[C@@H](CO)C(=O)N[C@@H](Cc1c[nH]c3ccccc13)C(=O)N1CCC[C@H]1C(=O)N[C@@H](C)C(=O)N[C@@H](CCCNC(=N)N)C(=O)N2 [Peptide 06-34-03] (H-ACSWPARCTHQDLCA-NH2; linker 2-8-14 via TBMB; N-terminus and C-terminus assumed) | – | Kallikrein binding in target binding assay [1]: one of the best sequences |
| SEQ ID NO: 115 (CNWPARCTHQDLC; Synthetic sequence Kallikrein binder containing a WPAR motif) | 1 | – |
| SEQ ID NO: 116 (CHWPARCTHQDLC; Synthetic sequence Kallikrein binder containing a WPAR motif) | 3 | – |
| SEQ ID NO: 117 (CPWPARCTHQDLC; Synthetic sequence Kallikrein binder containing a WPAR motif) | 4 | – |
| SEQ ID NO: 118 (CSWPARCTHADLC; Synthetic sequence Kallikrein binder containing a WPAR motif) | 5 | – |
| SEQ ID NO: 119 (CSWPARCTHDDLC; Synthetic sequence Kallikrein binder containing a WPAR motif) | 6 | – |
| SEQ ID NO: 120 (CAWPARCTHTDLC; Synthetic sequence Kallikrein binder containing a WPAR motif) | 7 | – |
| SEQ ID NO: 121 (CQWPARCLHTDLC; Synthetic sequence Kallikrein binder containing a WPAR motif) | 8 | – |
| SEQ ID NO: 122 (CLWPARCTHQDLC; Synthetic sequence Kallikrein binder containing a WPAR motif) | 9 | – |
| SEQ ID NO: 123 (CTWPARCTHTDLC; Synthetic sequence Kallikrein binder containing a WPAR motif) | 10 | – |
| SEQ ID NO: 124 (CHWPARCTHQELC; Synthetic sequence Kallikrein binder containing a WPAR motif) | 11 | – |
| SEQ ID NO: 125 (CAWPARCLHDDLC; Synthetic sequence Kallikrein binder containing a WPAR motif) | 12 | – |
| SEQ ID NO: 126 (CSWPARCLHTDLC; Synthetic sequence Kallikrein binder containing a WPAR motif) | 13 | – |
| SEQ ID NO: 127 (CAWPARCTHVDLC; Synthetic sequence Kallikrein binder containing a WPAR motif) | 14 | – |
| SEQ ID NO: 128 (CAWPARCTHTDFC; Synthetic sequence Kallikrein binder containing a WPAR motif) | 15 | – |
| SEQ ID NO: 129 (CMWPARCMHQDLC; Synthetic sequence Kallikrein binder containing a WPAR motif) | 16 | – |
| SEQ ID NO: 130 (CAWPARCTHADLC; Synthetic sequence Kallikrein binder containing a WPAR motif) | 17 | – |

| Compound | Rank (sequences ranked according to Kallikrein binding) [1] | other results |
| --- | --- | --- |
| SEQ ID NO: 131 (CQWPARCMHQDMC; Synthetic sequence Kallikrein binder containing a WPAR motif) | 18 | – |
| SEQ ID NO: 132 (CQWPARCTHSDLC; Synthetic sequence Kallikrein binder containing a WPAR motif) | 19 | – |
| SEQ ID NO: 133 (CLWPARCTHADLC; Synthetic sequence Kallikrein binder containing a WPAR motif) | 20 | – |
| SEQ ID NO: 134 (CRWPARCTHQDLC; Synthetic sequence Kallikrein binder containing a WPAR motif) | 21 | – |
| SEQ ID NO: 135 (CQWPARCMHQELC; Synthetic sequence Kallikrein binder containing a WPAR motif) | 22 | – |
| SEQ ID NO: 136 (CTWPARCLHQDLC; Synthetic sequence Kallikrein binder containing a WPAR motif) | 23 | – |
| SEQ ID NO: 137 (CSWPARCTHSHLC; Synthetic sequence Kallikrein binder containing a WPAR motif) | 24 | – |
| SEQ ID NO: 138 (CVWPARCTHQDLC; Synthetic sequence Kallikrein binder containing a WPAR motif) | 25 | – |
| SEQ ID NO: 139 (CTWPARCTHADLC; Synthetic sequence Kallikrein binder containing a WPAR motif) | 26 | – |
| SEQ ID NO: 140 (CHWPARCMHQDLC; Synthetic sequence Kallikrein binder containing a WPAR motif) | 27 | – |
| SEQ ID NO: 141 (CPWPARCTHTDLC; Synthetic sequence Kallikrein binder containing a WPAR motif) | 28 | – |
| SEQ ID NO: 142 (CAWPARCTHYDLC; Synthetic sequence Kallikrein binder containing a WPAR motif) | 29 | – |
| SEQ ID NO: 143 (CPWPARCTHQNLC; Synthetic sequence Kallikrein binder containing a WPAR motif) | 30 | – |
| SEQ ID NO: 144 (CSWPARCTHTELC; Synthetic sequence Kallikrein binder containing a WPAR motif) | 31 | – |
| SEQ ID NO: 145 (CAWPARCMHDDLC; Synthetic sequence Kallikrein binder containing a WPAR motif) | 32 | – |
| SEQ ID NO: 146 (CSWPARCLHTELC; Synthetic sequence Kallikrein binder containing a WPAR motif) | 33 | – |
| WSAR: phage clone: WSAR at positions 2-5 within the 06-34-03 sequence, TBMB-cyclised (also: TBMB-cyclised within the 06-34-03 context, the cysteines lie outside this motif) | – | Relative abundance of motif in selection output ([2]; 2nd stringency from High (1st value of cell)): 3%; Relative abundance of motif in selection output ([2]; 3rd stringency from High (2nd value of cell)): 3%; Relative abundance of motif in selection output ([2]; 4th stringency from High (3rd value of cell)): 7%; Relative abundance of motif in selection output ([2]; 5th stringency from High (4th value of cell)): 6%; Relative abundance of motif in selection output ([2]; stringency High): 3%; Relative abundance of motif in selection output ([2]; stringency LOW): 11% |
